Holding throughout (experiment): ELISA
What all share (settings): 0.5 μg coated receptor, read off a plot
Background: ELISA stands for enzyme-linked immunosorbent assay.

The target of assay [1] is Manduca sexta CR12 CAD fragment corresponding to cadherin repeat 12 (CAD-CR12).
The target in assay [2] is Manduca sexta alkaline phosphatase (ALP), recombinant.
In assay [3] the target is Manduca sexta aminopeptidase N 1 (APN1), recombinant.

As to “Cry1Ab wild type toxin (from UniProt P0A370) G439D”, the response was 0.12 ABS (490) in assay [1] (toxin 6.25 nM, parent: est. 0.46); 0.2 ABS (490) in assay [1] (toxin 12.5 nM, parent: est. 0.76); 0.45 ABS (490) in assay [1] (toxin 25 nM, parent: est. 1.3); 0.76 ABS (490) in assay [1] (toxin 50 nM, parent: est. 2.0); 1.2 ABS (490) in assay [1] (toxin 100 nM, parent: est. 2.4); 0.03 ABS (490) in assay [2] (toxin 6.25 nM, parent: est. 0.23). Moreover, the response was 0.05 ABS (490) in assay [2] (toxin 12.5 nM, parent: est. 0.39); 0.13 ABS (490) in assay [2] (toxin 25 nM, parent: est. 0.75); 0.34 ABS (490) in assay [2] (toxin 50 nM, parent: est. 1.5); 0.68 ABS (490) in assay [2] (toxin 100 nM, parent: est. 2.2); 0.09 ABS (490 nm) in assay [3] (toxin 6.25 nM, parent: est. 0.27); 0.12 ABS (490 nm) in assay [3] (toxin 12.5 nM, parent: est. 0.48). Further, the response is 0.27 ABS (490 nm) in assay [3] (toxin 25 nM, parent: est. 0.95); 0.61 ABS (490 nm) in assay [3] (toxin 50 nM, parent: est. 1.6); 1.1 ABS (490 nm) in assay [3] (toxin 100 nM, parent: est. 2.1).
